The target in test [1] is mouse TIM3 on cells (mouse) (UniProt Q8VIM0). As to the kind of experiment: binding to activated mouse T cells (method not described).
Test [2] shares this target. As to the kind of experiment: binding to activated mouse T cells, compared with TIM3.18 on human TIM-3.

mouse TIM3 on cells (mouse), sequence (Q8VIM0 20-281): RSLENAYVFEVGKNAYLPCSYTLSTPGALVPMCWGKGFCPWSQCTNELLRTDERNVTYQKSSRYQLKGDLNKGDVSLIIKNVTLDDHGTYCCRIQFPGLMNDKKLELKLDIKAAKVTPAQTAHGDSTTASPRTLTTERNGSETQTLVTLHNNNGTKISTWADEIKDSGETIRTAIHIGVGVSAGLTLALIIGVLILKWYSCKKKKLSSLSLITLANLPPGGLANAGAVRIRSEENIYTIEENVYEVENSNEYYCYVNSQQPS

For the substance “RMT3-23 rat anti-mouse TIM-3 antibody (Bio-X-Cell)”, the EC50 (in general, the concentration giving half of the maximal effect) in test [1] worked out at 1.7 nM. Besides, the fold weaker EC50 than TIM3.18 on human TIM-3 in test [2] worked out at 17 fold.

Source of the values: patent publication US20230382992A1.
